The values that follow are results of earlier work, collected in patent US20250319161A1, “IMPROVED METHODS OF TREATING DISEASES RESULTING FROM A MALADAPTED STRESS RESPONSE” (priority 2021, published 2025).

In series [1] the target is T1, CRFR2 (Homo sapiens, UniProt Q13324).
T1 sequence (Q13324 1-411): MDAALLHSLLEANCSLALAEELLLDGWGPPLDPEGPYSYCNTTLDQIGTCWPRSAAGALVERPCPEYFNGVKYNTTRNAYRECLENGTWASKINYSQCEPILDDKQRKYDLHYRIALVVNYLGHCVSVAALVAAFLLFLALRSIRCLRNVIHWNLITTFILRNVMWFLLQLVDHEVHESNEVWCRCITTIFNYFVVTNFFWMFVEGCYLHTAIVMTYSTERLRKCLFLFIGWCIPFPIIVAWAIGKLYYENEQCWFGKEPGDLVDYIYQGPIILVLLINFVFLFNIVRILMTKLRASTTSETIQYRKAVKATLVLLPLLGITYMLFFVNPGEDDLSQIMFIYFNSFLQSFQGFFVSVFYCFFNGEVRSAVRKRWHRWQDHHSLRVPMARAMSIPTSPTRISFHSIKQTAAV
Particulars: read-out: inhibitory constant at CRFR2.

In series [2] the target is T1, CRFR2. To be noted: in vitro.
Series [3] concerns the target T1, CRFR2. Particulars: in vitro. This is another data set of the same source.

Ends that are not written are not given here.

Turning to “endogenous urocortin 1, DNPSLSIDLTFHLLRTLLELARTQSQRERAEQNRIIFDSV-NH2 (DNPSLSIDLTFHLLRTLLELARTQSQRERAEQNRIIFDSV-NH2; UniProt P55089 83-122, looked up) [UCN1]”, in the series with CRFR2 [1], the Ki was 0.4 nM.
Turning to “endogenous urocortin 2, IVLSLDVPIG LLQILLEQAR ARAARBQATT NARILARV-NH2 [UCN2]”, the Ki with CRFR2 [1] is 1.1 nM. In the series with CRFR2 [2], the “concentration achieving maximal CRFR2 endocytosis” value was 100 nmol. Further, in the series with CRFR2 [3], the concentration giving a half-maximal response (EC50) – broadly, the concentration at which the effect is half-maximal – was 4.3 nM.
